{"source": "patent US20100215651A1", "about": "(GLENMARK PHARMACEUTICALS S A, published 2010)", "data": [{"biological_target": "T1, human CD19 (human, UniProt P15391 20-556)", "T1 construct": "CD19 as expressed on Raji, NALM-6 and SU-DHL-6 cells; also called CD19 antigen; B-cell surface antigen B4", "T1 sequence": "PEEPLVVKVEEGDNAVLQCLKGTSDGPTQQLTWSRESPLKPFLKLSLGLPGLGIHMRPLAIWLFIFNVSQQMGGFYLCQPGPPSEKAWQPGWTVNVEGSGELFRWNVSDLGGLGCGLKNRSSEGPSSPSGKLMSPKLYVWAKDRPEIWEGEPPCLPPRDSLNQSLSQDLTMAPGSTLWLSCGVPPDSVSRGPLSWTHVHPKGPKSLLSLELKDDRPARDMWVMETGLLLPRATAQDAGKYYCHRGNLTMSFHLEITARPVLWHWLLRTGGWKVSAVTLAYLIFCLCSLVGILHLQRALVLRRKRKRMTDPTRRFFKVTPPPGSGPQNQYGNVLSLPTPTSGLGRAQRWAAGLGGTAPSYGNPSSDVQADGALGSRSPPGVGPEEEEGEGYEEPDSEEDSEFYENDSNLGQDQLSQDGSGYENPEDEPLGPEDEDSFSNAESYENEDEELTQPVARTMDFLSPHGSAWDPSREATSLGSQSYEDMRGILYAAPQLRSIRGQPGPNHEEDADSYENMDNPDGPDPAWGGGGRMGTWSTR", "assay": "flow cytometry, Raji cells, MPF vs chimeric FMC63", "protocol": "Binding of the CD19 humanized monoclonal antibodies by flow cytometry to Raji tumor cells (human Burkitt lymphoma, DSMZ ACC319), NALM-6 (human B cell precursor leukemia, DSMZ ACC128) and SU-DHL-6 (human B cell lymphoma, DSMZ ACC572) (all cell lines from DSMZ Braunschweig, Deutschland) was assessed. Cells were incubated with serial dilutions of each humanized monoclonal antibody. An irrelevant human IgG1 was used as a negative control. The cells were washed and detected by a phycoerythrin-labeled (PE) anti-human secondary antibody (eBioscience, CA, USA) and analyzed by flow cytometry. […] From MFI versus antibody concentration curves, Mid-Point Fluorescence (MPF) value for each anti-CD19 humanized antibody was calculated using the software GraphPad Prism 5 (CA, USA).", "units": {"relative MPF (% of chimeric FMC63)": "%"}, "values": [{"binder": "VH16 R94K/VL43 V3Q/T7S/Y32F/P44I/N92A (antibody, human IgG1, kappa, V domains shown, human IgG1/kappa) VH: QVQLVQSGGGVVQPGRSLRLSCAASGVSLPDYGVSWVRQAPGKGLEWVAVIWGSETTYYNSALKSRFTISRDNSKNTLYLQMNSLRAEDTAVYYCAKHYYYGGSYAMDYWGQGTLVTVSS VL: DIQMTQSPSSLSASVGDRVTITCRASQDISKFLNWYQQKPGKAIKLLIYHTSRLHSGVPSRFSGSGSGTDFTLTISSLQPEDFATYYCQQGATLPYTFGPGTKVDIKR", "relative MPF (% of chimeric FMC63)": 111}, {"binder": "VH16-R71K/VL43-Y87F (antibody, human IgG1, name in Kabat numbering, V domains shown, substitutions in Kabat numbering) VH: QVQLVQSGGGVVQPGRSLRLSCAASGVSLPDYGVSWVRQAPGKGLEWVAVIWGSETTYYNSALKSRFTISKDNSKNTLYLQMNSLRAEDTAVYYCARHYYYGGSYAMDYWGQGTLVTVSS VL: DIVMTQTPSSLSASVGDRVTITCRASQDISKYLNWYQQKPGKAPKLLIYHTSRLHSGVPSRFSGSGSGTDFTLTISSLQPEDFATYFCQQGNTLPYTFGPGTKVDIKR", "relative MPF (% of chimeric FMC63)": 4.19}, {"binder": "VH16-L78V/VL43-F71Y (antibody, human IgG1, name in Kabat numbering, V domains shown, substitutions in Kabat numbering) VH: QVQLVQSGGGVVQPGRSLRLSCAASGVSLPDYGVSWVRQAPGKGLEWVAVIWGSETTYYNSALKSRFTISRDNSKNTVYLQMNSLRAEDTAVYYCARHYYYGGSYAMDYWGQGTLVTVSS VL: DIVMTQTPSSLSASVGDRVTITCRASQDISKYLNWYQQKPGKAPKLLIYHTSRLHSGVPSRFSGSGSGTDYTLTISSLQPEDFATYYCQQGNTLPYTFGPGTKVDIKR", "relative MPF (% of chimeric FMC63)": 12.3}, {"binder": "VH16-R71K/VL43-P44V (antibody, human IgG1, name in Kabat numbering, V domains shown, substitutions in Kabat numbering) VH: QVQLVQSGGGVVQPGRSLRLSCAASGVSLPDYGVSWVRQAPGKGLEWVAVIWGSETTYYNSALKSRFTISKDNSKNTLYLQMNSLRAEDTAVYYCARHYYYGGSYAMDYWGQGTLVTVSS VL: DIVMTQTPSSLSASVGDRVTITCRASQDISKYLNWYQQKPGKAVKLLIYHTSRLHSGVPSRFSGSGSGTDFTLTISSLQPEDFATYYCQQGNTLPYTFGPGTKVDIKR", "relative MPF (% of chimeric FMC63)": 6.93}, {"binder": "VH16 R94K Y32F VL43 (antibody, human IgG1, name in Kabat numbering, V domains shown, substitutions in Kabat numbering) VH: QVQLVQSGGGVVQPGRSLRLSCAASGVSLPDFGVSWVRQAPGKGLEWVAVIWGSETTYYNSALKSRFTISRDNSKNTLYLQMNSLRAEDTAVYYCAKHYYYGGSYAMDYWGQGTLVTVSS VL: DIVMTQTPSSLSASVGDRVTITCRASQDISKYLNWYQQKPGKAPKLLIYHTSRLHSGVPSRFSGSGSGTDFTLTISSLQPEDFATYYCQQGNTLPYTFGPGTKVDIKR", "relative MPF (% of chimeric FMC63)": 62.5}, {"binder": "VH16/VL43-F71Y (antibody, human IgG1, V domains shown, substitutions in Kabat numbering) VH: QVQLVQSGGGVVQPGRSLRLSCAASGVSLPDYGVSWVRQAPGKGLEWVAVIWGSETTYYNSALKSRFTISRDNSKNTLYLQMNSLRAEDTAVYYCARHYYYGGSYAMDYWGQGTLVTVSS VL: DIVMTQTPSSLSASVGDRVTITCRASQDISKYLNWYQQKPGKAPKLLIYHTSRLHSGVPSRFSGSGSGTDYTLTISSLQPEDFATYYCQQGNTLPYTFGPGTKVDIKR", "relative MPF (% of chimeric FMC63)": 11.3}, {"binder": "VH16-L78V/VL43 (antibody, human IgG1, name in Kabat numbering, V domains shown, substitutions in Kabat numbering) VH: QVQLVQSGGGVVQPGRSLRLSCAASGVSLPDYGVSWVRQAPGKGLEWVAVIWGSETTYYNSALKSRFTISRDNSKNTVYLQMNSLRAEDTAVYYCARHYYYGGSYAMDYWGQGTLVTVSS VL: DIVMTQTPSSLSASVGDRVTITCRASQDISKYLNWYQQKPGKAPKLLIYHTSRLHSGVPSRFSGSGSGTDFTLTISSLQPEDFATYYCQQGNTLPYTFGPGTKVDIKR", "relative MPF (% of chimeric FMC63)": 10.8}, {"binder": "VH16-R71K/VL43 (antibody, human IgG1, name in Kabat numbering, V domains shown, substitutions in Kabat numbering) VH: QVQLVQSGGGVVQPGRSLRLSCAASGVSLPDYGVSWVRQAPGKGLEWVAVIWGSETTYYNSALKSRFTISKDNSKNTLYLQMNSLRAEDTAVYYCARHYYYGGSYAMDYWGQGTLVTVSS VL: DIVMTQTPSSLSASVGDRVTITCRASQDISKYLNWYQQKPGKAPKLLIYHTSRLHSGVPSRFSGSGSGTDFTLTISSLQPEDFATYYCQQGNTLPYTFGPGTKVDIKR", "relative MPF (% of chimeric FMC63)": 4.43}, {"binder": "VH16-G42R/VL43-P44V (antibody, human IgG1, name in Kabat numbering, V domains shown, substitutions in Kabat numbering) VH: QVQLVQSGGGVVQPGRSLRLSCAASGVSLPDYGVSWVRQAPRKGLEWVAVIWGSETTYYNSALKSRFTISRDNSKNTLYLQMNSLRAEDTAVYYCARHYYYGGSYAMDYWGQGTLVTVSS VL: DIVMTQTPSSLSASVGDRVTITCRASQDISKYLNWYQQKPGKAVKLLIYHTSRLHSGVPSRFSGSGSGTDFTLTISSLQPEDFATYYCQQGNTLPYTFGPGTKVDIKR", "relative MPF (% of chimeric FMC63)": 8.33}, {"binder": "VH16-F67L/VL43-F71Y (antibody, human IgG1, name in Kabat numbering, V domains shown, substitutions in Kabat numbering) VH: QVQLVQSGGGVVQPGRSLRLSCAASGVSLPDYGVSWVRQAPGKGLEWVAVIWGSETTYYNSALKSRLTISRDNSKNTLYLQMNSLRAEDTAVYYCARHYYYGGSYAMDYWGQGTLVTVSS VL: DIVMTQTPSSLSASVGDRVTITCRASQDISKYLNWYQQKPGKAPKLLIYHTSRLHSGVPSRFSGSGSGTDYTLTISSLQPEDFATYYCQQGNTLPYTFGPGTKVDIKR", "relative MPF (% of chimeric FMC63)": 6.54}, {"binder": "VH16 R94K Y98F VL43 (antibody, human IgG1, name in Kabat numbering, V domains shown, substitutions in Kabat numbering) VH: QVQLVQSGGGVVQPGRSLRLSCAASGVSLPDYGVSWVRQAPGKGLEWVAVIWGSETTYYNSALKSRFTISRDNSKNTLYLQMNSLRAEDTAVYYCAKHYYFGGSYAMDYWGQGTLVTVSS VL: DIVMTQTPSSLSASVGDRVTITCRASQDISKYLNWYQQKPGKAPKLLIYHTSRLHSGVPSRFSGSGSGTDFTLTISSLQPEDFATYYCQQGNTLPYTFGPGTKVDIKR", "relative MPF (% of chimeric FMC63)": 34.1}, {"binder": "VH16 R94K Y96F VL43 (antibody, human IgG1, name in Kabat numbering, V domains shown, substitutions in Kabat numbering) VH: QVQLVQSGGGVVQPGRSLRLSCAASGVSLPDYGVSWVRQAPGKGLEWVAVIWGSETTYYNSALKSRFTISRDNSKNTLYLQMNSLRAEDTAVYYCAKHFYYGGSYAMDYWGQGTLVTVSS VL: DIVMTQTPSSLSASVGDRVTITCRASQDISKYLNWYQQKPGKAPKLLIYHTSRLHSGVPSRFSGSGSGTDFTLTISSLQPEDFATYYCQQGNTLPYTFGPGTKVDIKR", "relative MPF (% of chimeric FMC63)": 5.36}, {"binder": "VH16 R94K Y97F VL43 (antibody, human IgG1, name in Kabat numbering, V domains shown, substitutions in Kabat numbering) VH: QVQLVQSGGGVVQPGRSLRLSCAASGVSLPDYGVSWVRQAPGKGLEWVAVIWGSETTYYNSALKSRFTISRDNSKNTLYLQMNSLRAEDTAVYYCAKHYFYGGSYAMDYWGQGTLVTVSS VL: DIVMTQTPSSLSASVGDRVTITCRASQDISKYLNWYQQKPGKAPKLLIYHTSRLHSGVPSRFSGSGSGTDFTLTISSLQPEDFATYYCQQGNTLPYTFGPGTKVDIKR", "relative MPF (% of chimeric FMC63)": 72.8}, {"binder": "VH16-L78V/VL43-Y87F (antibody, human IgG1, name in Kabat numbering, V domains shown, substitutions in Kabat numbering) VH: QVQLVQSGGGVVQPGRSLRLSCAASGVSLPDYGVSWVRQAPGKGLEWVAVIWGSETTYYNSALKSRFTISRDNSKNTVYLQMNSLRAEDTAVYYCARHYYYGGSYAMDYWGQGTLVTVSS VL: DIVMTQTPSSLSASVGDRVTITCRASQDISKYLNWYQQKPGKAPKLLIYHTSRLHSGVPSRFSGSGSGTDFTLTISSLQPEDFATYFCQQGNTLPYTFGPGTKVDIKR", "relative MPF (% of chimeric FMC63)": 17.9}, {"binder": "VH16 R94K/Y97F/VL43 V3Q/T7S/N92A (antibody, human IgG1, name in Kabat numbering, V domains shown, substitutions in Kabat numbering) VH: QVQLVQSGGGVVQPGRSLRLSCAASGVSLPDYGVSWVRQAPGKGLEWVAVIWGSETTYYNSALKSRFTISRDNSKNTLYLQMNSLRAEDTAVYYCAKHYFYGGSYAMDYWGQGTLVTVSS VL: DIQMTQSPSSLSASVGDRVTITCRASQDISKYLNWYQQKPGKAPKLLIYHTSRLHSGVPSRFSGSGSGTDFTLTISSLQPEDFATYYCQQGATLPYTFGPGTKVDIKR", "binding result": "binds"}, {"binder": "VH16 Y32F/R94K/VL43 V3Q/T7S/Y32F/N92A (antibody, human IgG1, name in Kabat numbering, V domains shown, substitutions in Kabat numbering) VH: QVQLVQSGGGVVQPGRSLRLSCAASGVSLPDFGVSWVRQAPGKGLEWVAVIWGSETTYYNSALKSRFTISRDNSKNTLYLQMNSLRAEDTAVYYCAKHYYYGGSYAMDYWGQGTLVTVSS VL: DIQMTQSPSSLSASVGDRVTITCRASQDISKFLNWYQQKPGKAPKLLIYHTSRLHSGVPSRFSGSGSGTDFTLTISSLQPEDFATYYCQQGATLPYTFGPGTKVDIKR", "binding result": "binds"}, {"binder": "VH16 Y32F/R94K/VL43 V3Q/T7S/N92A (antibody, human IgG1, name in Kabat numbering, V domains shown, substitutions in Kabat numbering) VH: QVQLVQSGGGVVQPGRSLRLSCAASGVSLPDFGVSWVRQAPGKGLEWVAVIWGSETTYYNSALKSRFTISRDNSKNTLYLQMNSLRAEDTAVYYCAKHYYYGGSYAMDYWGQGTLVTVSS VL: DIQMTQSPSSLSASVGDRVTITCRASQDISKYLNWYQQKPGKAPKLLIYHTSRLHSGVPSRFSGSGSGTDFTLTISSLQPEDFATYYCQQGATLPYTFGPGTKVDIKR", "relative MPF (% of chimeric FMC63)": 58.8}, {"binder": "VH16-F67L/VL43-Y87F (antibody, human IgG1, name in Kabat numbering, V domains shown, substitutions in Kabat numbering) VH: QVQLVQSGGGVVQPGRSLRLSCAASGVSLPDYGVSWVRQAPGKGLEWVAVIWGSETTYYNSALKSRLTISRDNSKNTLYLQMNSLRAEDTAVYYCARHYYYGGSYAMDYWGQGTLVTVSS VL: DIVMTQTPSSLSASVGDRVTITCRASQDISKYLNWYQQKPGKAPKLLIYHTSRLHSGVPSRFSGSGSGTDFTLTISSLQPEDFATYFCQQGNTLPYTFGPGTKVDIKR", "relative MPF (% of chimeric FMC63)": 4.35}]}]}
